Test results: patent US20080248502A1 (EISAI R AND D MANAGEMENT, published 2008)
Each block holds one binder with its values, some of them ahead of it.

Assays:
[1] = biological target: T1, human CAR-AP chimeric protein (extracellular region of human CAR linked with human secretory placental … (human, UniProt P78310 20-237; P05187 23-511); assay: cell surface binding of human CAR-AP to transfected B300 cells
T1 construct: also called human CAR-AP chimeric proteins

[2] = biological target: T2, human CARL-AP chimeric protein (extracellular region of human CARL linked with human secretory placental … (human, UniProt P05187 23-511)); assay: adhesion of human CAR-expressing B300 cells to immobilized human CARL-AP
T2 construct: also called human CARL-AP chimeric proteins

[3] = biological target: T3, CAR-AP chimeric protein (extracellular region of mouse CAR linked with human secretory placental alkaline … (mouse; human, UniProt P97792 20-237; P05187 23-511); assay: adhesion of transfected B300 cells to immobilized CAR-AP
T3 construct: Secreted from 293/EBNA-1 cells; also called CAR-AP chimeric proteins; immobilized CAR
T3 sequence (P97792 other isoform, or with tags, fused parts or gaps mutant): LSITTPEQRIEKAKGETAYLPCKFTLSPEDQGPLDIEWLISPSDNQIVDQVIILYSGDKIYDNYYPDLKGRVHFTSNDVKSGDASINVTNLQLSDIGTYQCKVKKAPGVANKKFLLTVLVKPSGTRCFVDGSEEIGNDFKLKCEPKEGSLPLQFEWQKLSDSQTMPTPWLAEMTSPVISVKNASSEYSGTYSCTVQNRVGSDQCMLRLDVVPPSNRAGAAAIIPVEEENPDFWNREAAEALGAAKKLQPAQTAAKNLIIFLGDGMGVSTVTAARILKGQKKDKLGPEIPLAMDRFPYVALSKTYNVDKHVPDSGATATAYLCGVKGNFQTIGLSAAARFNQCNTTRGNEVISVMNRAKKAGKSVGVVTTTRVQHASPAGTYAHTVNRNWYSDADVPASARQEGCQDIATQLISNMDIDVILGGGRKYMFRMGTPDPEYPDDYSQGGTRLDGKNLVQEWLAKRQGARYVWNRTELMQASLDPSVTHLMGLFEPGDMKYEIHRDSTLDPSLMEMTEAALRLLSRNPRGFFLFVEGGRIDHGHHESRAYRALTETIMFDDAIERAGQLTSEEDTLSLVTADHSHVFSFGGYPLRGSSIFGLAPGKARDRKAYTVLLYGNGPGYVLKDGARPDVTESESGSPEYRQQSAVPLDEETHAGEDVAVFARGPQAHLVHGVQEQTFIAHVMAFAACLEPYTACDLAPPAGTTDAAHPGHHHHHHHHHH

[4] = biological target: T3, CAR-AP chimeric protein (extracellular …); assay: SPR (BIAcore X): CAR-AP captured by anti-alkaline phosphatase antibody on CM5 chip, CARL-Fc supernatant at 20, 6 or 0.6 nM
Method: Then, a culture supernatant comprising CAR-AP chimeric protein or control AP chimeric protein diluted to 20 nM with HBS-EP buffer (BIAcore) was added to immobilize 500 RU of AP chimeric proteins onto the sensor chip. The protein-protein interactions were measured by adding culture supernatants comprising CARL-Fc chimeric proteins diluted to 20 nM, 6 nM, or 0.6 nM with HBS-EP buffer (BIAcore) at 20 μl/min for 210 seconds.

[5] = biological target: T3, CAR-AP chimeric protein (extracellular …); assay: adhesion of CARL-expressing B300 cells to immobilized AP chimeric proteins
[6] = biological target: T4, CARL-AP chimeric protein (extracellular region of mouse CARL linked with human secretory placental alkaline … (mouse; human, UniProt P05187 23-511); assay: adhesion of B300/CARL cells to immobilized AP chimeric proteins (method of Example 4, proteins applied at 10 nM)
T4 construct: also called CARL-AP proteins; chimeric protein of ENSMUSG0000048534 with AP
Method: Cell adhesion experiments were carried out using AP chimeric proteins to identify molecules functioning as adhesion molecules that adhere to lymphocytes. First, 50 μl of 10 μg/ml anti-alkaline phosphatase antibody (Seradyn MIA1802) was added to 96 well ELISA plates (Nunc), and allowed to stand at 37° C. for 30 minutes to immobilize the antibody. After washing the plates with PBS, the non-specifically binding sites were blocked with BlockAce (Dainippon Pharmaceutical Co.). AP chimeric proteins were diluted to a final concentration of 10 nM, added to the wells, and allowed to stand at room temperature for 30 minutes to immobilize the proteins. Activated lymphocytes were suspended in cell adhesion buffer (RPMI 1640, 0.5% BSA, and 20 mM HEPES (pH 7.4)), fluorescently labeled with Calcein-AM (Dojin), then added to wells at 1×10⁵ cells/well, and incubated at 37° C. for one hour. The non-adherent cells were washed away. A cell lysis solution (10 mM TrisHCl (pH 8.0), 1% TritonX-100) was added, then adherent cells were quantified using Wallac ARVO SX 1420 MULTILABEL COUNTER (Perkin Elmer) and measuring at an excitation wavelength of 485 nm and detection wavelength of 535 nm. The degree of cell adhesion was represented as a percentage ratio of adherent cells to added cells. […]

B1: human CARL (human AMICA), full length, expressed on B300 cells (ligand)
chain: LNDLNVSPPELTVHVGDSALMGCVFQSTEDKCIFKIDWTLSPGEHAKDEYVLYYYSNLSVPIGRFQNRVHLMGDILCNDGSLLLQDVQEADQGTYICEIRLKGESQVFKKAVVLHVLPEEPKELMVHVGGLIQMGCVFQSTEVKHVTKVEWIFSGRRAKEEIVFRYYHKLRMSVEYSQSWGHFQNRVNLVGDIFRNDGSIMLQGVRESDGGNYTCSIHLGNLVFKKTIVLHVSPEEPRTLVTPAALRPLVLGGNQLVIIVGIVCATILLLPVLILIVKKTCGNKSSVNSTVLVKNTKKTNPEIKEKPCHFERCEGEKHIYSPIIVREVIEEEEPSEKSEATYMTMHPVWPSLRSDRNNSLEKKSGGGMPKTQQAF
notes: also called human CARL-expressing B300 cells; B300 cells expressing human CARL
binding result [1]: binds

B2: human CAR, full length, expressed on B300 cells (receptor, UniProt P78310 20-365, looked up)
chain: LSITTPEEMIEKAKGETAYLPCKFTLSPEDQGPLDIEWLISPADNQKVDQVIILYSGDKIYDDYYPDLKGRVHFTSNDLKSGDASINVTNLQLSDIGTYQCKVKKAPGVANKKIHLVVLVKPSGARCYVDGSEEIGSDFKIKCEPKEGSLPLQYEWQKLSDSQKMPTSWLAEMTSSVISVKNASSEYSGTYSCTVRNRVGSDQCLLRLNVVPPSNKAGLIAGAIIGTLLALALIGLIIFCCRKKRREEKYEKEVHHDIREDVPPPKSRTSTARSYIGSNHSSLGSMSPSNMEGYSKTQYNQVPSEDFERTPQSPTLPPAKVAAPNLSRMGAIPVMIPAQSKDGSIV
notes: whole, on cells; also called human CAR-expressing B300 cells
binding result [2]: binds

B4: CARL-Fc chimeric protein (mouse CARL) (Fc fusion)
chain: QGLPGLTVSSPQLRVHVGESVLMGCVVQRTEEKHVDRVDWLFSKDKDDASEYVLFYYSNLSVPTGRFQNRSHLVGDTFHNDGSLLLQDVQKADEGIYTCEIRLKNESMVMKKPVELWVLPEEPKDLRVRVGDTTQMRCSIQSTEEKRVTKVNWMFSSGSHTEEETVLSYDSNMRSGKFQSLGRFRNRVDLTGDISRNDGSIKLQTVKESDRGIYTCSIYVGKLESRKTIVLHVVQDEFQRTISPTPPTDKGQQGILNGNQL
notes: The making of CARL-Fc is described nowhere; used as culture supernatant; only its extracellular region is in the construct; also called CARL-Fc chimeric proteins; not shown: Fc part: species, isotype and any linker are not described
Kd [4]: 4.8 nM

Continued, values first:

binding result [3]: no binding
B3: domain 1-lacking CARL (positions 21 to 29 and 140 to 379) with FLAG tag, expressed on B300 cells (ligand)
chain: QGLPGLTVSPEEPKDLRVRVGDTTQMRCSIQSTEEKRVTKVNWMFSSGSHTEEETVLSYDSNMRSGKFQSLGRFRNRVDLTGDISRNDGSIKLQTVKESDRGIYTCSIYVGKLESRKTIVLHVVQDEFQRTISPTPPTDKGQQGILNGNQLVIIVGIVCATFLLLPVLILIVKKAKWNKSSVSSMASVKSLENKEKINPEKHIYSSITTWETTERGISGESEGTYMTMNPVWPSSPKASSLVRSSVRSK
notes: On cells; also called B300 cells expressing CARL lacking domain 1; not shown: FLAG tag from vector pMX ssFLAG MCS2.2 IRES Puro

binding result [3]: binds
B5: domain 2-lacking CARL (positions 21 to 139 and 255 to 379) with FLAG tag, expressed on B300 cells (ligand)
chain: QGLPGLTVSSPQLRVHVGESVLMGCVVQRTEEKHVDRVDWLFSKDKDDASEYVLFYYSNLSVPTGRFQNRSHLVGDTFHNDGSLLLQDVQKADEGIYTCEIRLKNESMVMKKPVELWVLQDEFQRTISPTPPTDKGQQGILNGNQLVIIVGIVCATFLLLPVLILIVKKAKWNKSSVSSMASVKSLENKEKINPEKHIYSSITTWETTERGISGESEGTYMTMNPVWPSSPKASSLVRSSVRSK
notes: On cells; also called B300 cells expressing CARL lacking domain 2; not shown: FLAG tag from vector pMX ssFLAG MCS2.2 IRES Puro

binding result [5]: binds
binding result [6]: no binding
B6: mouse CARL (CAR ligand; ENSMUSG0000048534), full length, on cells (ligand)
chain: QGLPGLTVSSPQLRVHVGESVLMGCVVQRTEEKHVDRVDWLFSKDKDDASEYVLFYYSNLSVPTGRFQNRSHLVGDTFHNDGSLLLQDVQKADEGIYTCEIRLKNESMVMKKPVELWVLPEEPKDLRVRVGDTTQMRCSIQSTEEKRVTKVNWMFSSGSHTEEETVLSYDSNMRSGKFQSLGRFRNRVDLTGDISRNDGSIKLQTVKESDRGIYTCSIYVGKLESRKTIVLHVVQDEFQRTISPTPPTDKGQQGILNGNQLVIIVGIVCATFLLLPVLILIVKKAKWNKSSVSSMASVKSLENKEKINPEKHIYSSITTWETTERGISGESEGTYMTMNPVWPSSPKASSLVRSSVRSK
notes: also called CARL-expressing B300 cells; similar to AMICA (BC050133)

binding result [3]: binds
B7: full-length CARL (positions 21 to 379) with vector signal sequence and FLAG tag, expressed on B300 cells (ligand)
chain: B6 chain
notes: also called B300 cells expressing full-length CARL; not shown: FLAG tag from vector pMX ssFLAG MCS2.2 IRES Puro
